Values quoted from earlier work in publication PMC4059402 (Chembiochem : a European journal of chemical biology, 2014).

Conditions: with laurate

B1: wild-type CYP102A1: long-chain fatty acid monoxygenase CYP102A1 (P450BM3) from B. megaterium (protein, UniProt P14779 1-1049, looked up)
Bifunctional cytochrome …: MTIKEMPQPKTFGELKNLPLLNTDKPVQALMKIADELGEIFKFEAPGRVTRYLSSQRLIKEACDESRFDKNLSQALKFVRDFAGDGLFTSWTHEKNWKKAHNILLPSFSQQAMKGYHAMMVDIAVQLVQKWERLNADEHIEVPEDMTRLTLDTIGLCGFNYRFNSFYRDQPHPFITSMVRALDEAMNKLQRANPDDPAYDENKRQFQEDIKVMNDLVDKIIADRKASGEQSDDLLTHMLNGKDPETGEPLDDENIRYQIITFLIAGHETTSGLLSFALYFLVKNPHVLQKAAEEAARVLVDPVPSYKQVKQLKYVGMVLNEALRLWPTAPAFSLYAKEDTVLGGEYPLEKGDELMVLIPQLHRDKTIWGDDVEEFRPERFENPSAIPQHAFKPFGNGQRACIGQQFALHEATLVLGMMLKHFDFEDHTNYELDIKETLTLKPEGFVVKAKSKKIPLGGIPSPSTEQSAKKVRKKAENAHNTPLLVLYGSNMGTAEGTARDLADIAMSKGFAPQVATLDSHAGNLPREGAVLIVTASYNGHPPDNAKQFVDWLDQASADEVKGVRYSVFGCGDKNWATTYQKVPAFIDETLAAKGAENIADRGEADASDDFEGTYEEWREHMWSDVAAYFNLDIENSEDNKSTLSLQFVDSAADMPLAKMHGAFSTNVVASKELQQPGSARSTRHLEIELPKEASYQEGDHLGVIPRNYEGIVNRVTARFGLDASQQIRLEAEEEKLAHLPLAKTVSVEELLQYVELQDPVTRTQLRAMAAKTVCPPHKVELEALLEKQAYKEQVLAKRLTMLELLEKYPACEMKFSEFIALLPSIRPRYYSISSSPRVDEKQASITVSVVSGEAWSGYGEYKGIASNYLAELQEGDTITCFISTPQSEFTLPKDPETPLIMVGPGTGVAPFRGFVQARKQLKEQGQSLGEAHLYFGCRSPHEDYLYQEELENAQSEGIITLHTAFSRMPNQPKTYVQHVMEQDGKKLIELLDQGAHFYICGDGSQMAPAVEATLMKSYADVHQVSEADARLWLQQLEEKGRYAKDVWAG
catalytic rate: 1,680 min^−1
